Data on 2 molecules can be found in article PMC7211019, “Par complex cluster formation mediated by phase separation” (Nature Communications, 2020).

Ends that are not written are not given here.

B1: FITC-labeled Par6β PBM peptide (peptide)
peptide: LEEDGTIITL
modifications: also: FITC label, position not given here
notes: source: synthetic peptide (Phtdpeptides)

One assay has as its target T1, Par3 PDZ3 (rat, UniProt Q9Z340 582-685).
T1 construct: Par3, rat, third PDZ domain; Cloned into pGEX-6P-1 or a modified pET32a vector; also called rat Par3 PDZ3; source: E. coli BL21 (DE3) or Rosetta, purified (Ni2+-NTA, SEC)
Nature of the assay: fluorescence polarisation; FITC-labeled peptide (~1 μM) titrated with Par3 PDZ domains, 25 °C, buffer A (50 mM Tris pH 8.0, 100 mM NaCl, 1 mM EDTA, 1 mM DTT). To be noted: both partners purified. In general terms: Polarisation of emitted light reports the rotation of a fluorescent probe.

For assay [1], the target named is B1. Described as above. As to conditions: both partners purified.

T1 sequence (Q9Z340 582-685): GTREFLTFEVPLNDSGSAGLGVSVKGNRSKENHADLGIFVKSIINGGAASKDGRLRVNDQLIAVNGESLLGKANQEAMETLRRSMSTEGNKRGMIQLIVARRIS

Regarding B1, the Kd (as a rule, the constant that tells how readily two partners part at equilibrium) in the assay with Par3 PDZ3 was roughly 1000 nM.

B2: Par3 PDZ3 G600,602 A (domain or fragment, rat)
chain: GTREFLTFEVPLNDSGSAALAVSVKGNRSKENHADLGIFVKSIINGGAASKDGRLRVNDQLIAVNGESLLGKANQEAMETLRRSMSTEGNKRGMIQLIVARRIS
notes: Par3, rat, third PDZ domain with G600A and G602A; source: E. coli BL21 (DE3) or Rosetta, purified (Ni2+-NTA, SEC)
Consider B2, for which the “fold weakening against wild-type Par3 PDZ3” value in assay [1] was roughly 20 fold.
